The text below walks through data of patent US20250277020A1 (Boehringer Ingelheim, published 2025).

The labels stand for the following.
T1: Full-length human CTGF (human, UniProt P29279 27-349)
T1 construct: Corresponds to NCBI NP_001892.1 with the signal peptide omitted; purchased from R&D Systems; also called hCTGF full length; full length CTGF
T1 sequence: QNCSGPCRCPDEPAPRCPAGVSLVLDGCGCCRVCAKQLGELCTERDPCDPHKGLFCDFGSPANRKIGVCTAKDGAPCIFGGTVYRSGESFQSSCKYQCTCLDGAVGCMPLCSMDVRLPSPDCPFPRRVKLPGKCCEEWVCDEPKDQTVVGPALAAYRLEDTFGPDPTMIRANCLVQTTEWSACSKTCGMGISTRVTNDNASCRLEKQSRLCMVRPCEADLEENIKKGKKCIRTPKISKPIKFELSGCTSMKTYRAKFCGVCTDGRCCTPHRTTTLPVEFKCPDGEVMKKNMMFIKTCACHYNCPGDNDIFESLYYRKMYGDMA

B1: A33 (antibody, human IgG1, kappa, L234A L235A, V domains shown)
VH: EVQLVESGGGLVQPGGSLRLSCAASGFTFSDYYMAWVRQAPGKGLEWVANINYEGSRTDLLESLKSRFTISRDNAKNSVYLQMNSLRAEDTAVYYCARDTSRGSYFDVWGAGTTVTVSS
VL: VVMTQTPLSLSVSLGDQASISCKSSQSIVHYNENTYLEWYLQKPGQSPQLLIYKVSSRFSGVPDRFSGSGSGTDFTLKISRVEAEDLGVYYCFQGSHFPLTFGQGTKLEIKR
B2: A9 (antibody, human IgG1, kappa, L234A L235A)
light: VVMTQTPLSLSVSLGDQASISCKSSQSIVHYNEKTYLEWYLQKPGQSPQLLIYKVSSRASGVPDRFSGSGSGTDFTLKISRVEAEDLGVYYCFQGSHFPLTFGQGTKLEIKRTVAAPSVFIFPPSDEQLKSGTASVVCLLNNFYPREAKVQWKVDNALQSGNSQESVTEQDSKDSTYSLSSTLTLSKADYEKHKVYACEVTHQGLSSPVTKSFNRGEC
heavy: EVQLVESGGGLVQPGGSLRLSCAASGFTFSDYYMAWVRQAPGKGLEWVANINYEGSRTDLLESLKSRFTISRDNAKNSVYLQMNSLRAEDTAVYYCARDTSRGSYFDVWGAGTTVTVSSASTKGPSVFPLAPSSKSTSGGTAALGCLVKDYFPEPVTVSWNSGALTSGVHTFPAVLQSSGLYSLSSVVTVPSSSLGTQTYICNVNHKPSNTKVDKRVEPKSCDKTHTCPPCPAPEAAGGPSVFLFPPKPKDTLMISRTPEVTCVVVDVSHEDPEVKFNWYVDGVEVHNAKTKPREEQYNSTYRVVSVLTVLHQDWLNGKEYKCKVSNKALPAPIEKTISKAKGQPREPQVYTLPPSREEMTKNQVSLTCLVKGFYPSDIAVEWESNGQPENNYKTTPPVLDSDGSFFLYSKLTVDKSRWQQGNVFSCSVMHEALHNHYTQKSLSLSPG
B3: A15 (antibody, human IgG1, kappa, L234A L235A)
light: VVMTQTPLSLSVSLGDQASISCKSSQSIVHYNEKTYLEWYLQKPGQSPQLLIYKVSSRASGVPDRFSGSGSGTDFTLKISRVEAEDLGVYYCFQGSHFPLTFGQGTKLEIKRTVAAPSVFIFPPSDEQLKSGTASVVCLLNNFYPREAKVQWKVDNALQSGNSQESVTEQDSKDSTYSLSSTLTLSKADYEKHKVYACEVTHQGLSSPVTKSFNRGEC
heavy: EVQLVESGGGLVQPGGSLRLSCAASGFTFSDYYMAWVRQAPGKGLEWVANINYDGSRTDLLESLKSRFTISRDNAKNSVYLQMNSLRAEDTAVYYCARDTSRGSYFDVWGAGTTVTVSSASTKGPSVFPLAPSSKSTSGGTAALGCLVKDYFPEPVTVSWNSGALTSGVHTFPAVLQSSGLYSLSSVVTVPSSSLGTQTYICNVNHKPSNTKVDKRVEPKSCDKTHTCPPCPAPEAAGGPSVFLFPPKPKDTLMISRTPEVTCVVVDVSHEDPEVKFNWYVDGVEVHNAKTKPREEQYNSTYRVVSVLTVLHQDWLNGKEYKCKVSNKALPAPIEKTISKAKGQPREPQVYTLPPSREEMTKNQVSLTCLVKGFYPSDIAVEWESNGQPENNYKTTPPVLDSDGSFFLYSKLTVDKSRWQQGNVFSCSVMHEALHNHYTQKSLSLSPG
B4: A20 (antibody, human IgG1, kappa, L234A L235A, V domains shown)
VH: EVQLVESGGGLVQPGGSLRLSCAASGFTFSDYYMAWVRQAPGKGLEWVANINYYGSRTDLLASLKSRFTISRDNAKNSVYLQMNSLRAEDTAVYYCARDTSRGSYFDVWGAGTTVTVSS
VL: VVMTQTPLSLSVSLGDQASISCKSSQSIVHYNGKTYLEWYLQKPGQSPQLLIYKVSSRFSGVPDRFSGSGSGTDFTLKISRVEAEDLGVYYCFQGSHFPLTFGQGTKLEIKR
B5: A16 (antibody, human IgG1, kappa, L234A L235A)
light: VVMTQTPLSLSVSLGDQASISCKSSQSIVHYNEKTYLEWYLQKPGQSPQLLIYKVSSRASGVPDRFSGSGSGTDFTLKISRVEAEDLGVYYCFQGSHFPLTFGQGTKLEIKRTVAAPSVFIFPPSDEQLKSGTASVVCLLNNFYPREAKVQWKVDNALQSGNSQESVTEQDSKDSTYSLSSTLTLSKADYEKHKVYACEVTHQGLSSPVTKSFNRGEC
heavy: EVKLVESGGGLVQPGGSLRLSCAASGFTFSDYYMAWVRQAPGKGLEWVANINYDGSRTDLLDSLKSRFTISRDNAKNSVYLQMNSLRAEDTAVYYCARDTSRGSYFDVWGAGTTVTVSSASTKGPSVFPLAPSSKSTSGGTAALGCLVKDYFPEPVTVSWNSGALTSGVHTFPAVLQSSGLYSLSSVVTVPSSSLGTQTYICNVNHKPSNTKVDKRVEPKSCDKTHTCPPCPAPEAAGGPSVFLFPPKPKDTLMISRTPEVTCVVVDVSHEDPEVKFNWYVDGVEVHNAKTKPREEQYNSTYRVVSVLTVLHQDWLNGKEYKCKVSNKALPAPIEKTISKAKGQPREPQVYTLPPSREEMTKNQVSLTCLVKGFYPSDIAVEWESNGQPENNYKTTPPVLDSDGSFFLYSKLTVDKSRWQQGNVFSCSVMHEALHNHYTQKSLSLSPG
B6: A18 (antibody, human IgG1, kappa, L234A L235A, V domains shown)
VH: EVQLVESGGGLVQPGGSLRLSCAASGFTFSDYYMAWVRQAPGKGLEWVANINYYGSRTDLLESLKSRFTISRDNAKNSVYLQMNSLRAEDTAVYYCARDTSRGSYFDVWGAGTTVTVSS
VL: VVMTQTPLSLSVSLGDQASISCKSSQSIVHYNGKTYLEWYLQKPGQSPQLLIYKVSSRFSGVPDRFSGSGSGTDFTLKISRVEAEDLGVYYCFQGSHFPLTFGQGTKLEIKR
B7: A17 (antibody, human IgG1, kappa, L234A L235A, V domains shown)
VH: EVQLVESGGGLVQPGGSLRLSCAASGFTFSDYYMAWVRQAPGKGLEWVANINYEGSRTDLLESLKSRFTISRDNAKNSVYLQMNSLRAEDTAVYYCARDTSRGSYFDVWGAGTTVTVSS
VL: VVMTQTPLSLSVSLGDQASISCKSSQSIVHYNGKTYLEWYLQKPGQSPQLLIYKVSSRFSGVPDRFSGSGSGTDFTLKISRVEAEDLGVYYCFQGSHFPLTFGQGTKLEIKR
B8: A5 (antibody, human IgG1, kappa, L234A L235A)
light: VVMTQTPLSLSVSLGDQASISCKSSQSIVHYNEKTYLEWYLQKPGQSPQLLIYKVSSRFSGVPDRFSGSGSGTDFTLKISRVEAEDLGVYYCFQGSHFPLTFGQGTKLEIKRTVAAPSVFIFPPSDEQLKSGTASVVCLLNNFYPREAKVQWKVDNALQSGNSQESVTEQDSKDSTYSLSSTLTLSKADYEKHKVYACEVTHQGLSSPVTKSFNRGEC
heavy: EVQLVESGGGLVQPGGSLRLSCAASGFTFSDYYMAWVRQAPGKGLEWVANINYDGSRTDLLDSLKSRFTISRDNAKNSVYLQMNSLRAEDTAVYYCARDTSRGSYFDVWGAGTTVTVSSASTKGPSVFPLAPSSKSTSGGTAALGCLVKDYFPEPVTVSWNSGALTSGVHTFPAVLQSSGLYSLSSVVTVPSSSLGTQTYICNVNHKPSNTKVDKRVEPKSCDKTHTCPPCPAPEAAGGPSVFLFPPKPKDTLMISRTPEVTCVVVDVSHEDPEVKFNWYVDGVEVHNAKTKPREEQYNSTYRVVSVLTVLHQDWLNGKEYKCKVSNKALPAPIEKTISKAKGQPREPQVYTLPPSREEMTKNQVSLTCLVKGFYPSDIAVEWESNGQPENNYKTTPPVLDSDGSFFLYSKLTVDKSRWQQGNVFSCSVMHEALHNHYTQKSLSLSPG
B9: A11 (antibody, human IgG1, kappa, L234A L235A)
light: VVMTQTPLSLSVSLGDQASISCKSSQSIVHYNEKTYLEWYLQKPGQSPQLLIYKVSSRASGVPDRFSGSGSGTDFTLKISRVEAEDLGVYYCFQGSHFPLTFGQGTKLEIKRTVAAPSVFIFPPSDEQLKSGTASVVCLLNNFYPREAKVQWKVDNALQSGNSQESVTEQDSKDSTYSLSSTLTLSKADYEKHKVYACEVTHQGLSSPVTKSFNRGEC
heavy: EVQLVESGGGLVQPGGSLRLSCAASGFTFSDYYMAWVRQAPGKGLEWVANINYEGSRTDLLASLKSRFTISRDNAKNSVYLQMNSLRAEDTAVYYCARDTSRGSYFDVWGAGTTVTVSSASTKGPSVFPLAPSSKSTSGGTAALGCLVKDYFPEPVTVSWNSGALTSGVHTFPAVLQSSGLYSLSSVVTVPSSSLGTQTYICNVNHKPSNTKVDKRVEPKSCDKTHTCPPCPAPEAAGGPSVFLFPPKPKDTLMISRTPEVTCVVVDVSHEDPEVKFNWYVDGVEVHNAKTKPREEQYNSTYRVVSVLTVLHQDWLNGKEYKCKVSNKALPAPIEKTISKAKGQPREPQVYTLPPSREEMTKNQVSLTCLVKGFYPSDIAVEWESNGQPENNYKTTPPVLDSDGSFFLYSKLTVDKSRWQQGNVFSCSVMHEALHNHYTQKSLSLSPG
B10: A10 (antibody, human IgG1, kappa, L234A L235A)
light: VVMTQTPLSLSVSLGDQASISCKSSQSIVHYNEKTYLEWYLQKPGQSPQLLIYKVSSRASGVPDRFSGSGSGTDFTLKISRVEAEDLGVYYCFQGSHFPLTFGQGTKLEIKRTVAAPSVFIFPPSDEQLKSGTASVVCLLNNFYPREAKVQWKVDNALQSGNSQESVTEQDSKDSTYSLSSTLTLSKADYEKHKVYACEVTHQGLSSPVTKSFNRGEC
heavy: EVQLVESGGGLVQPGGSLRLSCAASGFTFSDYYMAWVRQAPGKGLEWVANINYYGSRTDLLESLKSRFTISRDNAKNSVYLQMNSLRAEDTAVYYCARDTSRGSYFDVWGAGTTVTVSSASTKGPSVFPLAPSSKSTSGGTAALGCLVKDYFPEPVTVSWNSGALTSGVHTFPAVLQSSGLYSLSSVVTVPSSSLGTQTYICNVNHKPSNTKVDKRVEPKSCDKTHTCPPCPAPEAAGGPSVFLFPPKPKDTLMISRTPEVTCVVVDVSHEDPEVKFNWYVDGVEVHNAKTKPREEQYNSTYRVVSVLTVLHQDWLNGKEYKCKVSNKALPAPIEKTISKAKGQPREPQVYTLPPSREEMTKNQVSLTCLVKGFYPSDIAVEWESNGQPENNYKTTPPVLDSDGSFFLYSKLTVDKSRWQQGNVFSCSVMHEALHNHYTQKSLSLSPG
B11: A2 (antibody, human IgG1, kappa, L234A L235A, V domains shown)
VH: EVQLVESGGGLVQPGGSLRLSCAASGFTFSDYYMAWVRQAPGKGLEWVANINYYGSRTDLLESLKSRFTISRDNAKNSVYLQMNSLRAEDTAVYYCARDTSRGSYFDVWGAGTTVTVSS
VL: VVMTQTPLSLSVSLGDQASISCKSSQSIVHYNEKTYLEWYLQKPGQSPQLLIYKVSSRFSGVPDRFSGSGSGTDFTLKISRVEAEDLGVYYCFQGSHFPLTFGQGTKLEIKR
B12: A6 (antibody, human IgG1, kappa, L234A L235A, V domains shown)
VH: EVQLVESGGGLVQPGGSLRLSCAASGFTFSDYYMAWVRQAPGKGLEWVANINYEGSRTDLLDSLKSRFTISRDNAKNSVYLQMNSLRAEDTAVYYCARDTSRGSYFDVWGAGTTVTVSS
VL: VVMTQTPLSLSVSLGDQASISCKSSQSIVHYNEKTYLEWYLQKPGQSPQLLIYKVSSRFSGVPDRFSGSGSGTDFTLKISRVEAEDLGVYYCFQGSHFPLTFGQGTKLEIKR
B13: A4 (antibody, human IgG1, kappa, L234A L235A, V domains shown)
VH: EVQLVESGGGLVQPGGSLRLSCAASGFTFSDYYMAWVRQAPGKGLEWVANINYYGSRTDLLASLKSRFTISRDNAKNSVYLQMNSLRAEDTAVYYCARDTSRGSYFDVWGAGTTVTVSS
VL: VVMTQTPLSLSVSLGDQASISCKSSQSIVHYNEKTYLEWYLQKPGQSPQLLIYKVSSRFSGVPDRFSGSGSGTDFTLKISRVEAEDLGVYYCFQGSHFPLTFGQGTKLEIKR
B14: A19 (antibody, human IgG1, kappa, L234A L235A, V domains shown)
VH: EVQLVESGGGLVQPGGSLRLSCAASGFTFSDYYMAWVRQAPGKGLEWVANINYEGSRTDLLASLKSRFTISRDNAKNSVYLQMNSLRAEDTAVYYCARDTSRGSYFDVWGAGTTVTVSS
VL: VVMTQTPLSLSVSLGDQASISCKSSQSIVHYNGKTYLEWYLQKPGQSPQLLIYKVSSRFSGVPDRFSGSGSGTDFTLKISRVEAEDLGVYYCFQGSHFPLTFGQGTKLEIKR
B15: A12 (antibody, human IgG1, kappa, L234A L235A)
light: VVMTQTPLSLSVSLGDQASISCKSSQSIVHYNEKTYLEWYLQKPGQSPQLLIYKVSSRASGVPDRFSGSGSGTDFTLKISRVEAEDLGVYYCFQGSHFPLTFGQGTKLEIKRTVAAPSVFIFPPSDEQLKSGTASVVCLLNNFYPREAKVQWKVDNALQSGNSQESVTEQDSKDSTYSLSSTLTLSKADYEKHKVYACEVTHQGLSSPVTKSFNRGEC
heavy: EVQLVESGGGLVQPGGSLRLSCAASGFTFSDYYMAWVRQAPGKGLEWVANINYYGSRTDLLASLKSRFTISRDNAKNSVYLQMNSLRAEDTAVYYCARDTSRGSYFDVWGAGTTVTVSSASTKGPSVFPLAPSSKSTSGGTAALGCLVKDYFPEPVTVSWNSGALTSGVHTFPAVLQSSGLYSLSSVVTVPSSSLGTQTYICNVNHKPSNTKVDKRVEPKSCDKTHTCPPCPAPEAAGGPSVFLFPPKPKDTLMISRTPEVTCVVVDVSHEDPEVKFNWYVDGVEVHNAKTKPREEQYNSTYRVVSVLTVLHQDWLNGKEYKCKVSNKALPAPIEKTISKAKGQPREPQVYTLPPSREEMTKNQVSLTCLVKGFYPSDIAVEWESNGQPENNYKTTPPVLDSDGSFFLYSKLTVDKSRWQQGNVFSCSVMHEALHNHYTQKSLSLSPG
B16: A7 (antibody, human IgG1, kappa, L234A L235A, V domains shown)
VH: EVQLVESGGGLVQPGGSLRLSCAASGFTFSDYYMAWVRQAPGKGLEWVANINYDGSRTDLLESLKSRFTISRDNAKNSVYLQMNSLRAEDTAVYYCARDTSRGSYFDVWGAGTTVTVSS
VL: VVMTQTPLSLSVSLGDQASISCKSSQSIVHYNEKTYLEWYLQKPGQSPQLLIYKVSSRFSGVPDRFSGSGSGTDFTLKISRVEAEDLGVYYCFQGSHFPLTFGQGTKLEIKR
B17: A1 (antibody, human IgG1, kappa, L234A L235A, V domains shown)
VH: EVQLVESGGGLVQPGGSLRLSCAASGFTFSDYYMAWVRQAPGKGLEWVANINYEGSRTDLLESLKSRFTISRDNAKNSVYLQMNSLRAEDTAVYYCARDTSRGSYFDVWGAGTTVTVSS
VL: VVMTQTPLSLSVSLGDQASISCKSSQSIVHYNEKTYLEWYLQKPGQSPQLLIYKVSSRFSGVPDRFSGSGSGTDFTLKISRVEAEDLGVYYCFQGSHFPLTFGQGTKLEIKR
B18: A14 (antibody, human IgG1, kappa, L234A L235A)
light: VVMTQTPLSLSVSLGDQASISCKSSQSIVHYNEKTYLEWYLQKPGQSPQLLIYKVSSRASGVPDRFSGSGSGTDFTLKISRVEAEDLGVYYCFQGSHFPLTFGQGTKLEIKRTVAAPSVFIFPPSDEQLKSGTASVVCLLNNFYPREAKVQWKVDNALQSGNSQESVTEQDSKDSTYSLSSTLTLSKADYEKHKVYACEVTHQGLSSPVTKSFNRGEC
heavy: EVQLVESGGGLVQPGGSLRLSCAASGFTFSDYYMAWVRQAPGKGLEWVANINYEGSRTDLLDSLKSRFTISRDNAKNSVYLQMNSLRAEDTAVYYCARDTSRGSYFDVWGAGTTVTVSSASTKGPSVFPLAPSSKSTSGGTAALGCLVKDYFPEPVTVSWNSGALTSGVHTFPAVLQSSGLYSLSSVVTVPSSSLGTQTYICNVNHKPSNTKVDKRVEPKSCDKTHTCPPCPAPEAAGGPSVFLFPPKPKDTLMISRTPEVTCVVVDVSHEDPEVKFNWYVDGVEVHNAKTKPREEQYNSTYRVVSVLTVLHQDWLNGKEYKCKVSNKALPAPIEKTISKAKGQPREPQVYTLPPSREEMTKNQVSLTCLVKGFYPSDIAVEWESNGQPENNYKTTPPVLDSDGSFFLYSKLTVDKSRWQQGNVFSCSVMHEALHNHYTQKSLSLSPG
B19: A3 (antibody, human IgG1, kappa, L234A L235A, V domains shown)
VH: EVQLVESGGGLVQPGGSLRLSCAASGFTFSDYYMAWVRQAPGKGLEWVANINYEGSRTDLLASLKSRFTISRDNAKNSVYLQMNSLRAEDTAVYYCARDTSRGSYFDVWGAGTTVTVSS
VL: VVMTQTPLSLSVSLGDQASISCKSSQSIVHYNEKTYLEWYLQKPGQSPQLLIYKVSSRFSGVPDRFSGSGSGTDFTLKISRVEAEDLGVYYCFQGSHFPLTFGQGTKLEIKR
B20: A8 (antibody, human IgG1, kappa, L234A L235A)
light: VVMTQTPLSLSVSLGDQASISCKSSQSIVHYNEKTYLEWYLQKPGQSPQLLIYKVSSRFSGVPDRFSGSGSGTDFTLKISRVEAEDLGVYYCFQGSHFPLTFGQGTKLEIKRTVAAPSVFIFPPSDEQLKSGTASVVCLLNNFYPREAKVQWKVDNALQSGNSQESVTEQDSKDSTYSLSSTLTLSKADYEKHKVYACEVTHQGLSSPVTKSFNRGEC
heavy: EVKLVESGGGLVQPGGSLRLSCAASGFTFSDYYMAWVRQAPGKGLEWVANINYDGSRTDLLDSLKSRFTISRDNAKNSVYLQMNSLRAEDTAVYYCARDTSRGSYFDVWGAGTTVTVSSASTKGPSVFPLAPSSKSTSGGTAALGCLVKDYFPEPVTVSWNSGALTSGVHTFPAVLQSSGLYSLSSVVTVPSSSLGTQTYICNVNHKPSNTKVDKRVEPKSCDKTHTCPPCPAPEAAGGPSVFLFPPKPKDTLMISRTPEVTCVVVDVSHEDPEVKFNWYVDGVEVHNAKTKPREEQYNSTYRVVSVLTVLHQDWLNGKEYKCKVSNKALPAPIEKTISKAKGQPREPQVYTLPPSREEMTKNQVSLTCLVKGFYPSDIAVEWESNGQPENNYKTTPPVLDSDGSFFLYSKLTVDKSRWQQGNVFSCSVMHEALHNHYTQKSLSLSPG

The experiment has as its target T1, Full-length human CTGF. The experiment in a line: SPR, full length CTGF.
Consider B1, for which the binding result is “no binding”.
Broadly, the Kd is the free concentration of one partner at which half of the binding sites on the other are occupied at equilibrium, for simple one-to-one binding. Low values mean tighter binding, high ones weaker binding. Take B2: the Kd worked out at 0.21 nM.
On the same count and under the same terms, next, B3: 0.26 nM; B4: 0.18 nM.
B5 yielded a Kd of 0.24 nM.
On the same count and under the same terms, next, B6: 0.19 nM.
Still for that read-out and setting: the figure for B7 is 0.2 nM; for B8 it is 0.32 nM.
As to B9, binding was characterised by a dissociation constant (Kd) of 0.17 nM.
Take B10: the Kd came out at 0.19 nM.
Same read-out and setting: the figure for B11 is 0.25 nM; for B12 it is 0.32 nM.
Same read-out and setting: next, B13: 0.22 nM; B14: 0.17 nM.
The molecule B15 gave an equilibrium dissociation constant (Kd) of 0.17 nM.
The same measure, in the same setting: the figure for B16 is 0.33 nM; for B17 it is 0.29 nM; for B18 it is 0.22 nM.
Molecule B19 displayed a dissociation constant (Kd) of 0.23 nM.
For B20, the Kd worked out at 0.34 nM.
